Experimental data published in US11945858B2, “Antibodies and antibody fragments against HNAV1.7 channel and their use in pain and cancer indications” (NATIONAL RESEARCH COUNCIL OF CANADA, priority 2018, dated 2024).
Several values for one entry are separate records, joined by “and”; a condition that tells them apart may be missing. Identical values can stand only once. Entries after “also recorded” stand apart in the source; their conditions may differ.

Columns and labels:
[1] = target: hNav1.7 channels (Homo sapiens, UniProt Q15858, W1161R); experiment: Patch-clamp whole-cell recordings in hNav1.7-HEK293 cells; type: cell-based
[2] = tested on: CFA-induced thermal hyperalgesia; experiment: Hargreaves Model of Hyperalgesia in rats; type: in vivo, rat
Outline: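 Thermal hyperalgesia was measured with a radiant heat source applied to the plantar surface of both hind paws using a plantar Analgesia Meter. Latency was taken as the time until the rat licked or flicked the paw, with an automatic 20 sec cut-off. Rats were housed singly and randomized, testers were blinded, and % MPE = (Test−Baseline)×100/(Cut-off−Baseline).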

[3] = tested on: CHO-3E7; experiment: Cell-ELISA on live CHO-3E7 cells; type: cell-based, Chinese hamster; conditions: hybridoma supernatant, OD450 nm
Description: Cell-ELISA. Sterile 96-well plates (Costar #3595) were pre-treated with 50 μl/well of branched polyethyleneimine (PEI, Sigma Cat #408727) at 25 μg/ml in PBS for 30 min at room temperature. PEI was removed and CHO-3E7 or hNAv1.7-CHO (ChanTest cat #CT4003) were seeded at 6×10^5 cells per well in FreeStyle F17 Expression Medium (Gibco Cat #A1383501) and incubated overnight at 37° C., 5% CO2. Microplates were blocked with Starting block (Thermofisher Cat #37538) for 30 min at room temperature, and 50 μl of hybridoma supernatants were added and incubated at 4° C. for 3 h. Plates were washed 5 times with PBS and incubated for one hour at 4° C. with 50 μl of secondary antibody HRP-conjugated F(ab′)2 goat anti-mouse IgG (H+L) (Jackson Immunoresearch #115-036-062) diluted 1/5000 in blocking buffer. After 10 washes with PBS, 50 μl of TMB substrate solution (Pierce Cat #34021) was added and further incubated for 60 min at room temperature. Twenty-five μl/well of stop solution ([…] 1M) was added and OD450 nm measurements were done using a microplate reader (Spectramax 340 PC, Molecular Devices).

[4] = target: T1, FC5DIE3IR (Homo sapiens, UniProt Q15858); experiment: Surface Plasmon Resonance of mAbs, FC5DIE3IR; type: binding
T1 construct: The supernatant was collected and loaded on a 5 ml MabSelect™ SuRe™ column; made in house; host or cells: CHO-3E7 (transient, pTT5 vector), purified from supernatant
Description: Surface Plasmon Resonance of mAbs. FC5 and FC5DIE3IR proteins were SEC purified using a Superdex 75 column (GE Healthcare) connected to an AKTAPurifier (GE Healthcare) in HBS-EP+ running buffer (10 mM HEPES, pH 7.4, containing 150 mM NaCl, 3 mM EDTA and 0.05% P20) at a flow rate of 1 ml/min. Monomeric eluted peaks were used to flow over Fc-capture 3A8 mAb surfaces. To prepare the 3A8 mAb surfaces, approximately 6000 RUs of anti-mouse IgG (GE Healthcare) was first immobilized on CM5 Series S sensor chips (GE Healthcare) at pH 5.0, using standard amine coupling methods previously reported (Hussack et al., 2011) and according to the manufacturer's instructions (GE Healthcare). HBS-EP running buffer used for SPR experiments. The mAb 3A8 was captured on the anti-mouse IgG surface using 10 μg/ml of mAb, 30 sec contact time and flow rate of 10 μl/min. IMAC-purified DI-D VHH was passed through a Superdex 75 (GE Healthcare) column for SEC purification in HBS-EP buffer (10 mM HEPES, pH 7.4, containing 150 mM NaCl, 3 mM EDTA and 0.005% P20), connected to an AKTAPurifier (GE Healthcare) at a flow rate of 1 ml/min. Test binding experiments of FC5 control and FC5DIE3IR involved flowing 1 μM concentrations of SEC-pure material over the mAb surface at a flow rate of 30 μl/min for 5 min. Surfaces could be regenerated using 10 mM glycine, pH 1.7, with a 120 sec pulse at 20 μl/min. All SPR experiments were evaluated with Biacore T200 Software v 3.0. For kinetic analysis, single cycle kinetic analysis was used by flowing a range of FC5DIE3IR concentrations (320 nM-20 nM) at a flow rate of 30 μl/min, with 600 sec contact time and 1200 sec dissociation. Regeneration conditions were the same as above. Data were fit to a 1:1 binding model and analyzed using the Biacore T200 Software v3.0.
Surfaces were regenerated by washing with running buffer (HBS-EP). Data were analyzed with BIAevaluation 4.1 software as described (Hussack et al., 2011) and affinities determined using the steady state binding model.
Surface Plasmon Resonance (SPR) for monoclonal antibodies.

[5] = −20 mV, after antibody application (1 μM)

B1: 3A8: anti-hNav1.7 mouse monoclonal antibody, IgG2a, k; heavy chain SEQ ID NO: 12, light chain SEQ ID NO: 18 (antibody, V domains shown)
VH: QVQLQQPGAELVKPGASVKLSCKASGYTFTNYWMHWVKQRPGQGLEWIGEINPSNGRANYNEKFKSKATLTVDKSSSTAYMQLSSLTSEDSAVYYCARSPYGYYDYWGQGTTLTVSSAKTTAPSVYPLAP
VL: DVLMTQTPLSLPVSLGDQASISCRSSQSLLHSNGNTYFHWYLQKPGQSPKLLIYKVSNRFFGVPDRFSGSGSGTDFTLKISRVEAEDLGVYFCSQITHVPLTFGAGTKLELKRADAAPTVSIFPPSS
modifications: Heavy chain of the 3A8 antibody without leader sequence; Light chain of the 3A8 antibody without leader sequence
Voltage-dependence of activation (shift V1/2 activation) ([1]; 1 μM): −6.0±1.0 mV and −6.0 mV
Voltage-dependence of the steady-state fast inactivation (shift V1/2 inactivation) ([1]; 1 μM): −7.1±1.7 mV and −7.1 mV
Reduction of the hNav1.7 current in the time course ([1]; 1 μM, single time-course recording (FIG. 6B)): approx. 13%
Onset time of the effect (exponential fit of the current decay, T) ([1]; 1 μM, single time-course recording of the figure): 176 s
Effect on hNav1.7 currents (in words) ([1]; example recordings, 1-3 μM): reduced the hNav1.7 currents in a dose dependent manner
Fast inactivation (time constant) [1, 5]: 0.72 ± 0.08 ms and 0.72 ms
Time-to-peak [1, 5]: 0.88 ± 0.07 ms and 0.88 ms
Percentage of effect after injection (on left paw withdrawal) ([2]; 50 μg intraplantar, 0 h): 0%
Latency paw withdrawal ([2]; 50 μg intraplantar, 1 h): 6.08 ± 0.70 s
Percentage of effect after injection (on left paw withdrawal) ([2]; 50 μg intraplantar, 1 h): 18.00%
Latency paw withdrawal ([2]; 50 μg intraplantar, 2 h): 7.38 ± 0.67 s
Percentage of effect after injection (on left paw withdrawal) ([2]; 50 μg intraplantar, 2 h): 24.09%
Latency paw withdrawal ([2]; 50 μg intraplantar, 4 h): 6.79 ± 0.50 s
Percentage of effect after injection (on left paw withdrawal) ([2]; 50 μg intraplantar, 4 h): 22.40%
Maximum effect (% Effect) ([2]; 50 μg intraplantar, reached 2 hours after injection): 24.09±3.69%
Percentage of effect after injection (on left paw withdrawal) ([2]; 100 μg intraplantar, 0 h): 0%
Latency paw withdrawal ([2]; 100 μg intraplantar, 1 h): 9.56 ± 0.70 s
Percentage of effect after injection (on left paw withdrawal) ([2]; 100 μg intraplantar, 1 h): 33.96%
Latency paw withdrawal ([2]; 100 μg intraplantar, 2 h): 10.58 ± 0.90 s
Percentage of effect after injection (on left paw withdrawal) ([2]; 100 μg intraplantar, 2 h): 40.55%
Latency paw withdrawal ([2]; 100 μg intraplantar, 4 h): 10.28 ± 1.20 s
Percentage of effect after injection (on left paw withdrawal) ([2]; 100 μg intraplantar, 4 h): 40.18%
Maximum percentage of the effect (% Effect; % MPE) ([2]; 100 μg intraplantar, time of maximum (1, 2 or 4 h)): 40.55±2.20%
Duration of the reversal of hyperalgesia ([2]; 30 mg/kg intravenous): up to 24 h
Reversal of CFA-induced hyperalgesia (in words) ([2]; 30 mg/kg intravenous): able to reverse CFA-induced hyperalgesia
Percentage of the maximum possible effect (% MPE) ([2]; 30 mg/kg intravenous (tail vein), 4 h): 26.60±3.26%
Latency paw withdrawal time ([2]; 3A8 alone 75 μg intraplantar (FIG. 18)): 10.59 ± 0.87 s
Reversal of hyperalgesia (% MPE) ([2]; 3A8 alone 75 μg intraplantar, 4 h): 35.35%±4.44
Latency paw withdrawal ([2]; intraplantar injection, 4 hours after administration (FIG. 10)): 8.50 ± 0.94 s
ELISA on live cells (duplicates) CHO-3E7 ([3]; duplicate 1): −0.027
ELISA on live cells (duplicates) CHO-3E7 ([3]; duplicate 2): −0.018
ka [4]: 7050 M⁻¹ s⁻¹
kd [4]: 0.000259 s⁻¹
Rmax (RU) ([4]; Fc-captured mAb, FC5-DIE3IR flowed, 25 °C): 80 RU
Binding to FC5DIE3IR (comment, in words) ([4]; SPR, 25 °C): bound specifically FC5DIE3IR; also recorded: strong and specific binding; also recorded: strongly and specifically bound; also recorded: extremely slow off rate
